According to publication PMC5700546:
Where two headings read alike, the source gives them in different places.

Columns and labels:
Experiment in all cases: AUC; sedimentation velocity, interference optics; 40 uM protein in 25 mM TES, 100 mM NaCl, 100 uM EDTA, pH 7.4; apo samples and samples with 250 uM Cu2+ and Ca2+; no reducing agent; c(s) distribution by SedFit; self-association (monomer, dimer, higher oligomers)
[1] = biological target: human S100A5, wildtype (human) (UniProt P33763)
[2] = biological target: human S100A5, wildtype (human) (UniProt P33763); remark: listed apart in the source
[3] = biological target: human S100A5 C43S/C79S, Cysteine-free variant (human) (UniProt P33763)

stoichiometry N [1]	stoichiometry N [2]	stoichiometry N [3]	Substance
> 12	2		human S100A5, wildtype (from UniProt P33763 1-92) (natural protein)
		2	human S100A5 C43S/C79S, Cysteine-free variant (from UniProt P33763 1-92) (natural protein)
